Consider ten molecules from patent US20230295348A1 (NOVIMMUNE, published 2023).

Test in all cases: direct ELISA, biotinylated recombinant protein on streptavidin plates
(In general: ELISA stands for enzyme-linked immunosorbent assay.)

The target in experiment [1] is T1, recombinant Human carcinoembryonic antigen (human, UniProt P06731 35-685, limits assumed).
T1 construct: Irrelevant control protein of the ELISA, biotinylated and captured on streptavidin plates; also called irrelevant protein; CEA
T1 sequence (looked up): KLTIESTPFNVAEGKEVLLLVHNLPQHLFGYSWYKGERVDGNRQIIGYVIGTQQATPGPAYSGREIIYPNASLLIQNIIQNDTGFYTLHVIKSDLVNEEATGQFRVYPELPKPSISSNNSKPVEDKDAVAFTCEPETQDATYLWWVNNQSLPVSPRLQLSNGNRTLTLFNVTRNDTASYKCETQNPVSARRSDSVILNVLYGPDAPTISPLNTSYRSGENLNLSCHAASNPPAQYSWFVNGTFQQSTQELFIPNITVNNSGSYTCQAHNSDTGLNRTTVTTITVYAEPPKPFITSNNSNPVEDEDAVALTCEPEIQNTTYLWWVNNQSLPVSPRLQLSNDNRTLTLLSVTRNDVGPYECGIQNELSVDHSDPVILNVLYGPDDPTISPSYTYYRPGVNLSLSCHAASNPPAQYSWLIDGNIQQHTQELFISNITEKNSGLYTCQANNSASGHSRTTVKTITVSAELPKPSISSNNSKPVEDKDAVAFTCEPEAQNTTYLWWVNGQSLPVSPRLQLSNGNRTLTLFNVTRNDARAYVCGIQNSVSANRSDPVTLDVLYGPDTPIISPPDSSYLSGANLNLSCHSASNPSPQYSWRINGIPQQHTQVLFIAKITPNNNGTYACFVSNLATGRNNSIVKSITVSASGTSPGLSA

Another experiment deals with T2, human recombinant IL-2Rγ (human, UniProt P31785 23-262, limits assumed).
T2 construct: Biotinylated and captured on streptavidin plates in the ELISA; also called IL-2Rg; IL2Rg
T2 sequence (looked up): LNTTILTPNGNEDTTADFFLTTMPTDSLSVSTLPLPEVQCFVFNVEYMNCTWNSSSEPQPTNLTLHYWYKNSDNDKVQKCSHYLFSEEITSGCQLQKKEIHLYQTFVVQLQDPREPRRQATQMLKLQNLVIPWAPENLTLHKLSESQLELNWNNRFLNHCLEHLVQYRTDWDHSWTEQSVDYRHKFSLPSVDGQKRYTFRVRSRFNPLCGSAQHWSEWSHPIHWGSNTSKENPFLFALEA

Another experiment has as its target T3, human recombinant IL-2Rβ (human, UniProt P14784 27-239, limits assumed).
T3 construct: Biotinylated and captured on streptavidin plates in the ELISA; also called IL-2Rb; IL2Rb
T3 sequence (looked up): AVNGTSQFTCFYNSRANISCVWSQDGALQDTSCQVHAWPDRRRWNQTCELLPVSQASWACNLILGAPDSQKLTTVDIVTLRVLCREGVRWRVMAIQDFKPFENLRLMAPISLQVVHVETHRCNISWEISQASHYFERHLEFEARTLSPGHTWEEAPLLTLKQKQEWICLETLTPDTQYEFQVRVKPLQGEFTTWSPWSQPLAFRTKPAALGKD

The target in the next experiment is T4, human recombinant HER2 (human, UniProt P04626 23-652).
T4 construct: Biotinylated and captured on streptavidin plates in the ELISA; also called human epidermal growth factor receptor 2

B1: P1A3×P2C4 (bispecific antibody, V domains shown)
VH 1: QVQLQQWGAGLLKPSETLSLTCAVYGGSFSGYYWSWIRQPPGKGLEWIGEINHSGSTNYNPSLKSRATISVDTSKNQFSLKLSSVTAADTAVYYCATSPGGYSGGYFQHWGQGTLVTVSS
VL 1: not shown
VH 2: EVQLVQSGAEVKKPGSSVKVSCKASGYTFTNYYMHWVRQAPGQGLEWMGAIMPSRGGTSYPQKFQGRVTMTGDTSTSTVYMELSSLRSEDTAVYYCARGEYYYDSSGYYYWGQGTLVTVSS
VL 2: QSALTQPASVSGSPGQSIAISCTGTSSDIGHYDFVSWYQQHPGTAPKLIIYDINNRPSGISNRFSGSKSDNMASLTISGLQPEDEADYYCSAYTSSDTLVFGGGTKLT
notes: anti-IL-2Rβ (P2C4) in the knob arm; also called anti-IL-2Rβ×anti-IL-2Rγ bsAb; IL-2Rβ×IL-2Rγ KiH bsAb
As to B1, the binding result in experiment [1] is “no binding”; in the experiment with human recombinant IL-2Rγ, “binds”; with human recombinant IL-2Rβ, “binds”.

B2: AL1N2-28 (bispecific antibody, human IgG1, kappa, lambda, L234A L235A)
heavy: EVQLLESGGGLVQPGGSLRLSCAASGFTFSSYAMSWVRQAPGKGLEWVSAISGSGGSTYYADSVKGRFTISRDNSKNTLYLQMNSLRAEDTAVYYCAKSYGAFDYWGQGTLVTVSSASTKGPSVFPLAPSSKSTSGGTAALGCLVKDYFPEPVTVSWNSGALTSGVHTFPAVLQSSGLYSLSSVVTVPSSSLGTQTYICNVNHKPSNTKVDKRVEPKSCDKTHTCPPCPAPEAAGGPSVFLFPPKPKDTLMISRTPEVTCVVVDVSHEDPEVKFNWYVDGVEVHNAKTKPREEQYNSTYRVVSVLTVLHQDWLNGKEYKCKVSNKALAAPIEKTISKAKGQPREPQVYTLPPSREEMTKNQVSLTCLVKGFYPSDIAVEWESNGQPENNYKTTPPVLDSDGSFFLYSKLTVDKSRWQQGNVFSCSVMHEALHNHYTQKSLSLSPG
light 1: not shown
light 2: SYVLTQPPSVSVAPGKTARITCGGNTIGSTVVHWYQQKPGQAPVLVIYFDDARPSGIPERFSGSNSGNTATLTISRVEAGDEADYYCQVWDSFGLSLAPVFGGGTKLTVLGQPKAAPSVTLFPPSSEELQANKATLVCLISDFYPGAVTVAWKADSSPVKAGVETTTPSKQSNNKYAASSYLSLTPEQWKSHRSYSCQVTHEGSTVEKTVAPTECS
notes: κλ-body: common heavy chain, kappa anti-IL2Rβ light chain (AL1), lambda anti-HER2 light chain (N2-28); also called AL1N2-28/N
As for B2, the binding result with human recombinant HER2 and in the experiment with human recombinant IL-2Rβ was “binds” each time.

B3: AL2N2-28 (bispecific antibody, human IgG1, kappa, lambda, L234A L235A)
heavy: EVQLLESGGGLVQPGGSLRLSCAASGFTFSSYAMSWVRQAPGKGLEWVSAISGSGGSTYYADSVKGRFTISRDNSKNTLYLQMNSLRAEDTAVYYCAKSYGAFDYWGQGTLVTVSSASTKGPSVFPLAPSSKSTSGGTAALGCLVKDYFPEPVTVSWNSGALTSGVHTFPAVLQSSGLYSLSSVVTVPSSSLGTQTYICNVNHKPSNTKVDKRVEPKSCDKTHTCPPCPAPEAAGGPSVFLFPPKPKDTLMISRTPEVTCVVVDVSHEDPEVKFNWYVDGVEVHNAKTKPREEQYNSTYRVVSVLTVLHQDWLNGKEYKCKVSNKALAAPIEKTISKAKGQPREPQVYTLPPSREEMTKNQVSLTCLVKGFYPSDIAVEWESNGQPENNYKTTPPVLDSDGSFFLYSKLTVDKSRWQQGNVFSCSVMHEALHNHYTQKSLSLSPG
light 1: not shown
light 2: B2 light 2
notes: κλ-body: common heavy chain, kappa anti-IL2Rβ light chain (AL2), lambda anti-HER2 light chain (N2-28); also called AL2N2-28/N
Turning to B3, the binding result with human recombinant HER2 and in the experiment with human recombinant IL-2Rβ was “binds” each time.

B4: AL5N2-28 (bispecific antibody, human IgG1, kappa, lambda, L234A L235A)
heavy: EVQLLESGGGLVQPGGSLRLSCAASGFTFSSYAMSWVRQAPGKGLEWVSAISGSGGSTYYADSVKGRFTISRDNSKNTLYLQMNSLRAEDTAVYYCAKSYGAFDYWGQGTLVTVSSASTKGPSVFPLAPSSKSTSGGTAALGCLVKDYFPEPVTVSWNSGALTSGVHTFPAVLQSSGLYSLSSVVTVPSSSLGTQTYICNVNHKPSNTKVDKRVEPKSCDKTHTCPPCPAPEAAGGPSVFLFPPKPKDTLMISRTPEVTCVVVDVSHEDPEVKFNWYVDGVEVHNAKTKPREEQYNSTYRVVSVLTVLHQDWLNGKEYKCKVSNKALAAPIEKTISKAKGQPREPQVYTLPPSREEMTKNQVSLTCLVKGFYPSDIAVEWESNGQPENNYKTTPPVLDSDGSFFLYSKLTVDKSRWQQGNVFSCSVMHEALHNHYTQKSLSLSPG
light 1: not shown
light 2: B2 light 2
notes: κλ-body: common heavy chain, kappa anti-IL2Rβ light chain (AL5), lambda anti-HER2 light chain (N2-28); also called AL5N2-28/N
For the molecule B4, the binding result with human recombinant HER2 and in the experiment with human recombinant IL-2Rβ was “binds” each time.

B5: AL4N2-28 (bispecific antibody, human IgG1, kappa, lambda, L234A L235A)
heavy: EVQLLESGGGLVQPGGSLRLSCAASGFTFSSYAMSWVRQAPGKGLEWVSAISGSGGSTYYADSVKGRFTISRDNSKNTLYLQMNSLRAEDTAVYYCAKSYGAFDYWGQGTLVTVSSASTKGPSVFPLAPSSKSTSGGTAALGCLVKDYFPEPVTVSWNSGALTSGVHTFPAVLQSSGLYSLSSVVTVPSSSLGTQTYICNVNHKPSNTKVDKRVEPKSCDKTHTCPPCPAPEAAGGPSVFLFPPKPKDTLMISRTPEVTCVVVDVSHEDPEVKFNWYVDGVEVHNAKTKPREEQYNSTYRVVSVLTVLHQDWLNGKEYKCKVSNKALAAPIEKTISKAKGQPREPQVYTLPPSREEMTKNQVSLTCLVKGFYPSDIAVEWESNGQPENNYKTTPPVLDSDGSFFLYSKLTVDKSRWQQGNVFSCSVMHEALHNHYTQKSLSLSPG
light 1: DIQMTQSPSSLSASVGDRVTITCRASQSIDEYLNWYQQKPGKAPKLLIYEASKLQSGVPSRFSGSGSGTDFTLTISSLQPEDFATYYCQQDGAMDTYATFGQGTKVEIKRTVAAPSVFIFPPSDEQLKSGTASVVCLLNNFYPREAKVQWKVDNALQSGNSQESVTEQDSKDSTYSLSSTLTLSKADYEKHKVYACEVTHQGLSSPVTKSFNRGEC
light 2: B2 light 2
notes: κλ-body: common heavy chain, kappa anti-IL2Rβ light chain (AL4), lambda anti-HER2 light chain (N2-28); also called AL4N2-28/N
Regarding B5, the binding result with human recombinant HER2 and with human recombinant IL-2Rβ was “binds” in each case.

B6: AL3N2-28 (bispecific antibody, human IgG1, kappa, lambda, L234A L235A)
heavy: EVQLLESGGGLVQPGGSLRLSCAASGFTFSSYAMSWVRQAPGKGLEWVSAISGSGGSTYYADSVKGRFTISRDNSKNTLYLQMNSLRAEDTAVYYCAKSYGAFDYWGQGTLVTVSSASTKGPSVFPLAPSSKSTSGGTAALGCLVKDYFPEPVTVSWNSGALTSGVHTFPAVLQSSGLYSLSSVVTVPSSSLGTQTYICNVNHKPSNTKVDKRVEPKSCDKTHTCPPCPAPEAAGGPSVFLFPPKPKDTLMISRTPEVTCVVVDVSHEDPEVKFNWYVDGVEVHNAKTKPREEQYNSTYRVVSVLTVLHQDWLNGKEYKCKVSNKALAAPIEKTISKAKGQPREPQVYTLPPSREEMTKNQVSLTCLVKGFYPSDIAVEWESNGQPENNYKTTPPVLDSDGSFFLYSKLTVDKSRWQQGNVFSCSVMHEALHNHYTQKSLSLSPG
light 1: not shown
light 2: B2 light 2
notes: κλ-body: common heavy chain, kappa anti-IL2Rβ light chain (AL3), lambda anti-HER2 light chain (N2-28); also called AL3N2-28/N
On to B6, for which the binding result with human recombinant HER2 and in the experiment with human recombinant IL-2Rβ was “binds” each time.

B7: AL4O30 (bispecific antibody, human IgG1, kappa, lambda, L234A L235A)
heavy: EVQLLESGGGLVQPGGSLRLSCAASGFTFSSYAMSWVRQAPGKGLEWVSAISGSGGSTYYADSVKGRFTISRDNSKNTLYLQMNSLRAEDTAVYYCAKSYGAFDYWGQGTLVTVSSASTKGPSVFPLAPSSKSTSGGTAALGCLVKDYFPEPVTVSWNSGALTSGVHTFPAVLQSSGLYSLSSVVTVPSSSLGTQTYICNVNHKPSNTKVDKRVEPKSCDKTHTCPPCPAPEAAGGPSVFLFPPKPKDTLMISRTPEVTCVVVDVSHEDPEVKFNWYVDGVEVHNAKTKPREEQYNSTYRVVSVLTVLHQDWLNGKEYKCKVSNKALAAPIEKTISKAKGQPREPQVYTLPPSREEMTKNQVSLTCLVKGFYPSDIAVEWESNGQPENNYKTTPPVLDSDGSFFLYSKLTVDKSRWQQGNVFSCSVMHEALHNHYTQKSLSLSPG
light 1: B5 light 1
light 2: not shown
notes: κλ-body: common heavy chain, kappa anti-IL2Rβ light chain (AL4), lambda anti-MSLN light chain (O30); also called AL4O30/N
Take B7: the binding result with human recombinant IL-2Rβ is listed as “binds”.

B8: AL4O35 (bispecific antibody, human IgG1, kappa, lambda, L234A L235A)
heavy: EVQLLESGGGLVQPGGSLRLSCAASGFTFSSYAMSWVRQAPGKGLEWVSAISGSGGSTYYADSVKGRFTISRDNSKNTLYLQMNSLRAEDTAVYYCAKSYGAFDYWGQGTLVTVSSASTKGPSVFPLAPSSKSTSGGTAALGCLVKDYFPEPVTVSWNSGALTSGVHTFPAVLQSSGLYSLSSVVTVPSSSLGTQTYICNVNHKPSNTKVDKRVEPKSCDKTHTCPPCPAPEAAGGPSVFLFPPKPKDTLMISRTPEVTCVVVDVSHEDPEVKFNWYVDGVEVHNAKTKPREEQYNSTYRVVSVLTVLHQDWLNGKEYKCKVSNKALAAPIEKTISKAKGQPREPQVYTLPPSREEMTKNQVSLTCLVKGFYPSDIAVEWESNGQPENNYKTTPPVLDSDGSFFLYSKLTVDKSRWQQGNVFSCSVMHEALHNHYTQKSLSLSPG
light 1: B5 light 1
light 2: QPVLTQPVSLSASPGASVSLTCTLRSDIRVRDYRIFWYQQKPGSPPQYLLRYKTDSDKQQGSGVPSRFSGSKDASANAGILLISGLQSEDEADYYCMIWHRTTGTSLVFGGGTKLTVLGQPKAAPSVTLFPPSSEELQANKATLVCLISDFYPGAVTVAWKADSSPVKAGVETTTPSKQSNNKYAASSYLSLTPEQWKSHRSYSCQVTHEGSTVEKTVAPTECS
notes: κλ-body: common heavy chain, kappa anti-IL2Rβ light chain (AL4), lambda anti-MSLN light chain (O35); also called AL4O35/N
In the case of B8, the binding result with human recombinant IL-2Rβ is on record as “binds”.

B9: AL4O41 (bispecific antibody, human IgG1, kappa, lambda, L234A L235A)
heavy: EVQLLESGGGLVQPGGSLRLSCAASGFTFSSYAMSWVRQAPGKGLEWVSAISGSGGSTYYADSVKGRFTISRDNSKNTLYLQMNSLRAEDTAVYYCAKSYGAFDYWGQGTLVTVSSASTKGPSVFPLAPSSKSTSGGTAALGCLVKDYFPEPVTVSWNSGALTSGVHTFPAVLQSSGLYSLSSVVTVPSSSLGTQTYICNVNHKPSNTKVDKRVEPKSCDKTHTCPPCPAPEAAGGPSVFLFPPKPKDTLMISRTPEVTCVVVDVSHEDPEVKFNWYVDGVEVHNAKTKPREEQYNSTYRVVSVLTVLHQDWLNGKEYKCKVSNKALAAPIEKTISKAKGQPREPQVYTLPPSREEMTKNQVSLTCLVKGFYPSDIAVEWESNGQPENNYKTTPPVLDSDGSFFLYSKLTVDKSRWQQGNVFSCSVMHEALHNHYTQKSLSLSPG
light 1: B5 light 1
light 2: SYVLTQPPSVSVAPGKTARITCGGNKIGHRAVHWYQQKPGQAPVLVIYYTYERPSGIPERFSGSNSGNTATLTISRVEAGDEADYYCQVWDWYSEGGVVFGGGTKLTVLGQPKAAPSVTLFPPSSEELQANKATLVCLISDFYPGAVTVAWKADSSPVKAGVETTTPSKQSNNKYAASSYLSLTPEQWKSHRSYSCQVTHEGSTVEKTVAPTECS
notes: κλ-body: common heavy chain, kappa anti-IL2Rβ light chain (AL4), lambda anti-MSLN light chain (O41); also called AL4O41/N
As for B9, the binding result with human recombinant IL-2Rβ is on record as “binds”.

B10: AL4O38 (bispecific antibody, human IgG1, kappa, lambda, L234A L235A)
heavy: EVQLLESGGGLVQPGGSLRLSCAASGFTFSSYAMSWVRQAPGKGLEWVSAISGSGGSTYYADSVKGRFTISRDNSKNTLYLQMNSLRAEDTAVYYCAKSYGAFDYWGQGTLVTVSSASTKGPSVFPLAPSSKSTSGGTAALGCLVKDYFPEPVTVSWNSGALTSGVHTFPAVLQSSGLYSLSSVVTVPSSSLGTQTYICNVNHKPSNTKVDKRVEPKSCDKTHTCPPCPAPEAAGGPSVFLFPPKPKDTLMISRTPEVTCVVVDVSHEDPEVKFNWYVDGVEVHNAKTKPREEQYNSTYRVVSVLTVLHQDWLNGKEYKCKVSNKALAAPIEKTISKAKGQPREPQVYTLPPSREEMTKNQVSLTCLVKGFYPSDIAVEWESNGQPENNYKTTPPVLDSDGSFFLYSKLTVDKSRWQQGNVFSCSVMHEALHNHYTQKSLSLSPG
light 1: B5 light 1
light 2: QPVLTQPASLSASPGASASLTCTLRSGINVRDYRIFWYQQKPGSPPQYLLRYKSASDKQQGSGVPSRFSGSKDASANAGILLISGLQSEDEADYYCMIWHHDSEGHAFVFGGGTKLTVLGQPKAAPSVTLFPPSSEELQANKATLVCLISDFYPGAVTVAWKADSSPVKAGVETTTPSKQSNNKYAASSYLSLTPEQWKSHRSYSCQVTHEGSTVEKTVAPTECS
notes: κλ-body: common heavy chain, kappa anti-IL2Rβ light chain (AL4), lambda anti-MSLN light chain (O38); also called AL4O38/N
As for B10, the binding result with human recombinant IL-2Rβ is on record as “binds”.
